How the values were obtained:
IM-CA22 = test: competition ELISA: 0.5 µg/mL peptide added to prevent the binding of AS-SPIK with IM-CA22; inhibition rate from OD value with vs without peptide
[1] = molecular target: T1, Peptide A (entire sequence of AS-SPIK without disulfide bonds) (human, cysteine side-groups inactivated, no disulfide bonds); test: ELISA, plate coated with peptide, HRP-labelled antibody
T1 construct: Synthesized by BioMatik
T1 peptide: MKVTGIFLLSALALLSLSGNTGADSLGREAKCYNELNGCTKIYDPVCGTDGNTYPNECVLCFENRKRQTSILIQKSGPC
Text: In order to further support the observation that epitopes specific to AS-SPIK and not NS-SPIK are conformation-dependent, additional tests to evaluate antibody binding to various synthesized peptides was completed. Four peptides, each containing sequences from different regions of AS-SPIK were synthesized by BioMatik (Wilmington DE). Peptide A contains the entire sequence of AS-SPIK, but without the formation of any disulfide bonds via the inactivation of cysteine side-groups. Peptide B contains the sequence of AS-SPIK fragment from M₁-G₅₀, Peptide C contains the sequence of AS-SPIK fragment from D₂₃-G₅₀ and Peptide D contains the sequence of AS-SPIK fragment from N₅₁-C₇₉. The binding activity of our monoclonal antibodies to AS-SPIK and the other peptides was tested by ELISA and results for IM-CA22 are shown in FIG. 6. Similar results were obtained from all other monoclonal anti-AS-SPIK antibodies we have developed, including IM-CA18, IM-CA46, IM-CA77, IM-A1, IM-A6, IM-B10, IM-C6, IM-D3, IM-D5, IM-E2, IM-F5, IM-G6 and IM-G7. Briefly, a 96-well plate was coated with Native AS-SPIK and different peptides, the plate then reacted with anti-AS-SPIK antibody (IM-CA22 herein) labeled with HRP. The OD450 nm was determined after incubating the plate with the substrate, TMB.

Sequence of IM-CA22 (VH, as listed by the source, chain 1 of 2): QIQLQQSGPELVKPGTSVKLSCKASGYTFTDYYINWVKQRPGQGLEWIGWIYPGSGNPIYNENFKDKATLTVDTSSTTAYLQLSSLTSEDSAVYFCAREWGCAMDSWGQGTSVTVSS
Sequence of IM-CA22 (VL, as listed by the source, chain 2 of 2): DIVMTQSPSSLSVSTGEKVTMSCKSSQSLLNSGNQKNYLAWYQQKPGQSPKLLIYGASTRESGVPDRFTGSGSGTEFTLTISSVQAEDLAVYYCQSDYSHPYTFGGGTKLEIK

LSLSGNTGA [SPIK8]
Inhibition % (IM-CA22): 11%

LLSLSGNTGADSL [SPIK3]
Inhibition % (IM-CA22): 11%

SLSGNTGADSLGR [SPIK2]
Inhibition % (IM-CA22): 10%

SGNTGADSLGREA [SPIK1]
Inhibition % (IM-CA22): 9%

B1: IM-C6 (antibody, V domains shown)
VH: QSVKESEGGLFKPTDALTLTCTVSGFSLSSYAISWVRQAPGSGLEWIGAINTYGGTYYASWAKSRSTITRNTNENTVTLKMTSLTAADTATYFCARDFDSDAYTSASGGMDWGPGTLVTVSS
VL: AYDMTQTPASVEVAVGGTVTIKCQASQSINNYLSWYQQIPGQPPKLLIYRASTLASGVSSRFKGSGSGTQFTLTISGVQCADAATYYCQQGYTSNVDNVFGGGTEVVVKG
notes: Rabbit monoclonal, Class II
binding result [1]: no binding

B2: IM-E2 (antibody, V domains shown)
VH: QSVKESEGGLFKPTDTLTLTCTVSGFSLSAYAISWVRQAPGNGLEWIGAINSGGSAYYANWAKSRSTITRNTNLNTVTLKMTSLTAADTATYFCAREDIYDYGGAFDPWGPGTLVTVST
VL: AYDMTQTPASVEVTVGGTVTIKCQASQGISSYLSWYQQKPGQPPKLLIYAATTLVSGVSSRFKGSGSGTQFTLTISGVECADAATYYCQQDYTTSNVDNTFGGGTEVVVKG
notes: Rabbit monoclonal, Class II
binding result [1]: no binding
